Measured values taken from the supplement of paper PMC10065799, “High-throughput profiling of sequence recognition by tyrosine kinases and SH2 domains using bacterial peptide display” (eLife, 2023).

What was measured:
c-Src SH2 = experiment: SH2 binding enrichment of the phosphorylated peptide, bacterial display (enrichment ratio); higher = better substrate or ligand; peptides without Tyr show the background
SHP2-C SH2 = experiment: as above
Grb2 SH2 = Grb2 SH2 (UniProt P62993); experiment: as above
Grb2 SH2, sequence (P62993 whole entry, looked up): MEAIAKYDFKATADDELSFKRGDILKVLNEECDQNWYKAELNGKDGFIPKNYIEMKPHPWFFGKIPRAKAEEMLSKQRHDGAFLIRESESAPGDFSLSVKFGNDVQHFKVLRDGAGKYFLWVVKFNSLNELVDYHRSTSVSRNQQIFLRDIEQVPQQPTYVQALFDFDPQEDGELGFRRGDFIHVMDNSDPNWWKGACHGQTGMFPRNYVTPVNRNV

FGFR3 = FGFR3 (UniProt P22607); experiment: phosphorylation enrichment, bacterial display (enrichment ratio); higher = better substrate or ligand; peptides without Tyr show the background
FGFR3, sequence (P22607 whole entry, looked up): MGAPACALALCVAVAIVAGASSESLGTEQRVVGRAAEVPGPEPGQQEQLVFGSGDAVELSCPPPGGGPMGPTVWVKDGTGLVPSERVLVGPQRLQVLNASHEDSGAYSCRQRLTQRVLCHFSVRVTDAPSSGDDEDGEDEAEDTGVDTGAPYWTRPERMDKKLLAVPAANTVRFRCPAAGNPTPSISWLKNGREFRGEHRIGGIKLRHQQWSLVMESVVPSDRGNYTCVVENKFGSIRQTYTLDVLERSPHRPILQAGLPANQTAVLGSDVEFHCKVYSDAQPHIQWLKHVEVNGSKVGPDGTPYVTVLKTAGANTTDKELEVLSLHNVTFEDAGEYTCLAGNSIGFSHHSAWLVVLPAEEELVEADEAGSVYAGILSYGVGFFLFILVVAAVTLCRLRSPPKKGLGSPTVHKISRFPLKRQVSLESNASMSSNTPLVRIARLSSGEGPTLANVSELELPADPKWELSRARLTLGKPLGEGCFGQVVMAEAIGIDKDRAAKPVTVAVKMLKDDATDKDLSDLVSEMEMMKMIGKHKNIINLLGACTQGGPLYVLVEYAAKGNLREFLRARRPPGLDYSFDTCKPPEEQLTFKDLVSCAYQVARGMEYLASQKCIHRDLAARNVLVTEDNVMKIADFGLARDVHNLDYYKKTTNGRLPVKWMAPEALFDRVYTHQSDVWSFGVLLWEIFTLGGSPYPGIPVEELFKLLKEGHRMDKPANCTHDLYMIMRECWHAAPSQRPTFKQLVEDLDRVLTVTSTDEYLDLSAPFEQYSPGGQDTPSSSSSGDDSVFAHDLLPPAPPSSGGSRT

MERTK = MERTK (UniProt Q12866); experiment: as above
MERTK, sequence (Q12866 whole entry, looked up): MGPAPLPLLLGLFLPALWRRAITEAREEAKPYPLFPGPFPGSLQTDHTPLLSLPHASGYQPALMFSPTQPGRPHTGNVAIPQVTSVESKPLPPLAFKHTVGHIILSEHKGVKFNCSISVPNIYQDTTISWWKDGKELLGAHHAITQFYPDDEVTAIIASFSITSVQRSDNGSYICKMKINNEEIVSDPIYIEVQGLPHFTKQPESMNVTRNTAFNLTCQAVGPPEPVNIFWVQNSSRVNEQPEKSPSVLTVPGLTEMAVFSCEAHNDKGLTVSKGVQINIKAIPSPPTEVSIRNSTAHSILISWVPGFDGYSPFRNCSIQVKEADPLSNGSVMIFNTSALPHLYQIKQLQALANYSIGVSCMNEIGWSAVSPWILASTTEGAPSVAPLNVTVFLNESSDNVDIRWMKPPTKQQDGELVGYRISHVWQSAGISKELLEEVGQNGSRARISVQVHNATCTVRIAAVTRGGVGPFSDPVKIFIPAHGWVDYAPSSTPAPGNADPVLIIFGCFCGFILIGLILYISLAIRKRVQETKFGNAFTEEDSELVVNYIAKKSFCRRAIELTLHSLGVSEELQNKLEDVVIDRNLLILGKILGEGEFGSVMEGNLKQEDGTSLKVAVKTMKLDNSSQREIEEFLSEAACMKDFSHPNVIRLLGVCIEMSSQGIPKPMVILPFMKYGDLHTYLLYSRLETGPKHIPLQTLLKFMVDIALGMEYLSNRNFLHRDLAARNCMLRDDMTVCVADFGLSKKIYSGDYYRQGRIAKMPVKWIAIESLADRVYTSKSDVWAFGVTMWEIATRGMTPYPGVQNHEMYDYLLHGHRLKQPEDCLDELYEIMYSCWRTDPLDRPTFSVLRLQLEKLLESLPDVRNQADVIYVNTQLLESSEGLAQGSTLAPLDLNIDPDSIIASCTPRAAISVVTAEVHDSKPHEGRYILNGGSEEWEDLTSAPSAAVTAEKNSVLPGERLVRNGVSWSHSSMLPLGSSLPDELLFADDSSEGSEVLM

Hck = Hck (UniProt P08631); experiment: as above
Hck, sequence (P08631 whole entry, looked up): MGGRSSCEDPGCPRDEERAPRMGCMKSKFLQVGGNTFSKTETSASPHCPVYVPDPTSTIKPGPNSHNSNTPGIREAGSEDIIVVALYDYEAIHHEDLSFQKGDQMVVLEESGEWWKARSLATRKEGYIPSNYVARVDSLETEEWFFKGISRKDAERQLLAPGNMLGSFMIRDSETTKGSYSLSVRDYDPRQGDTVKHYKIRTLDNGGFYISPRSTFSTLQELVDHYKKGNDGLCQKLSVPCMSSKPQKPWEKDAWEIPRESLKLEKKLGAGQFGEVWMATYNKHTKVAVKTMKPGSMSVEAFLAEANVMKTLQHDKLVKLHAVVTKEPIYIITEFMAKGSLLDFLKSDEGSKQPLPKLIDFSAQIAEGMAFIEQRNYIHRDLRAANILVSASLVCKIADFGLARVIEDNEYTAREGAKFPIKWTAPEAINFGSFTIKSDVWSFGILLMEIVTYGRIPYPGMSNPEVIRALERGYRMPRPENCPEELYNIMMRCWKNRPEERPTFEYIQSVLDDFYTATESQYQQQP

EPHB1 = EPHB1 (UniProt P54762); experiment: as above
Fyn = Fyn (UniProt P06241); experiment: as above
Fyn, sequence (P06241 whole entry, looked up): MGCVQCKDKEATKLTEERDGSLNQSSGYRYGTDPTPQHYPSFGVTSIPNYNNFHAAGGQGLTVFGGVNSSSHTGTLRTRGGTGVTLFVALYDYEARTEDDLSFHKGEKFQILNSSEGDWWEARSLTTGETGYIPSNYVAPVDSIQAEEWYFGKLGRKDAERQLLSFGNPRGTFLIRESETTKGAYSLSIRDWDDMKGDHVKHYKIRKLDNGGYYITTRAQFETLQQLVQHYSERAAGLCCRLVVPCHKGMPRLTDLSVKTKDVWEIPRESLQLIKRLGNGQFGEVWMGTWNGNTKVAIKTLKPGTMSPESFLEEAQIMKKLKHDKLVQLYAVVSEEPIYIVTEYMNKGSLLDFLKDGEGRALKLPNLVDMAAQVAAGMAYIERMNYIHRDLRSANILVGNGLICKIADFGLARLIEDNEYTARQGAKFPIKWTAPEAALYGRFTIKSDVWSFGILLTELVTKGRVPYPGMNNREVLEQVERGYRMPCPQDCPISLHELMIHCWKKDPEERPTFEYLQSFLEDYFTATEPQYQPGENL

Jak2 = Jak2 (UniProt O60674); experiment: as above
Jak2, sequence (O60674 whole entry, looked up): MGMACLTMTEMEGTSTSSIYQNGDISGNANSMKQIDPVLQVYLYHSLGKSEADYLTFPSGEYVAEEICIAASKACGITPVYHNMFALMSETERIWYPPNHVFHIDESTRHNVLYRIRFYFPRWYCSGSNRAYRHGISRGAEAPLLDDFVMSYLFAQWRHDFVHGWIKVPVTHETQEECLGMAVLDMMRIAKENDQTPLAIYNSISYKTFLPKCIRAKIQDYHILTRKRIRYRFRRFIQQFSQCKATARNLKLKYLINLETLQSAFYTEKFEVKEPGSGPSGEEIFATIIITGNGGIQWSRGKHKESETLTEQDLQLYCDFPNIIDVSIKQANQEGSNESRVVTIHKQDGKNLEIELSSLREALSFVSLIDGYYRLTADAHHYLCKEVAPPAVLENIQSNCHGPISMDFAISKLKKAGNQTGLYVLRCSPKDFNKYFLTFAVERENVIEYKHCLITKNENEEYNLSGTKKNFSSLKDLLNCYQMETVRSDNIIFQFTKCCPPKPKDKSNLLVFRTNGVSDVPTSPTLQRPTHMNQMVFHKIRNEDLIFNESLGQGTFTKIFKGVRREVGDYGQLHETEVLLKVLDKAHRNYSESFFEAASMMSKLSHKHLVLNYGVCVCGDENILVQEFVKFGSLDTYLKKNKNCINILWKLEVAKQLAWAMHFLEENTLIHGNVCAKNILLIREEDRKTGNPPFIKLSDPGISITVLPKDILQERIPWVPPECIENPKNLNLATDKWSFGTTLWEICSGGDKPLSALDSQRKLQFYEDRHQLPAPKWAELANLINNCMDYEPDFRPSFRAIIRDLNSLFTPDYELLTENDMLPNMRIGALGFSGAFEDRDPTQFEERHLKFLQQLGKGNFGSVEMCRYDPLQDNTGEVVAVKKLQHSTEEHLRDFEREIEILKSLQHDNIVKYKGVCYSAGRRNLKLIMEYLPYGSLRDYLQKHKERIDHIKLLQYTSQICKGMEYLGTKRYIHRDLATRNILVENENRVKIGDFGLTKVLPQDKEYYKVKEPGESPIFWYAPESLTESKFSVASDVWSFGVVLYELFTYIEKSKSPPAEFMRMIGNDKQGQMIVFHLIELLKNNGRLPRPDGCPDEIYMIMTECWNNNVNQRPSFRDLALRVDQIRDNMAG

c-Src = experiment: as above
EPHB2 = EPHB2 (UniProt P29323); experiment: as above
Fes = Fes (UniProt P07332); experiment: as above
Fes, sequence (P07332 whole entry, looked up): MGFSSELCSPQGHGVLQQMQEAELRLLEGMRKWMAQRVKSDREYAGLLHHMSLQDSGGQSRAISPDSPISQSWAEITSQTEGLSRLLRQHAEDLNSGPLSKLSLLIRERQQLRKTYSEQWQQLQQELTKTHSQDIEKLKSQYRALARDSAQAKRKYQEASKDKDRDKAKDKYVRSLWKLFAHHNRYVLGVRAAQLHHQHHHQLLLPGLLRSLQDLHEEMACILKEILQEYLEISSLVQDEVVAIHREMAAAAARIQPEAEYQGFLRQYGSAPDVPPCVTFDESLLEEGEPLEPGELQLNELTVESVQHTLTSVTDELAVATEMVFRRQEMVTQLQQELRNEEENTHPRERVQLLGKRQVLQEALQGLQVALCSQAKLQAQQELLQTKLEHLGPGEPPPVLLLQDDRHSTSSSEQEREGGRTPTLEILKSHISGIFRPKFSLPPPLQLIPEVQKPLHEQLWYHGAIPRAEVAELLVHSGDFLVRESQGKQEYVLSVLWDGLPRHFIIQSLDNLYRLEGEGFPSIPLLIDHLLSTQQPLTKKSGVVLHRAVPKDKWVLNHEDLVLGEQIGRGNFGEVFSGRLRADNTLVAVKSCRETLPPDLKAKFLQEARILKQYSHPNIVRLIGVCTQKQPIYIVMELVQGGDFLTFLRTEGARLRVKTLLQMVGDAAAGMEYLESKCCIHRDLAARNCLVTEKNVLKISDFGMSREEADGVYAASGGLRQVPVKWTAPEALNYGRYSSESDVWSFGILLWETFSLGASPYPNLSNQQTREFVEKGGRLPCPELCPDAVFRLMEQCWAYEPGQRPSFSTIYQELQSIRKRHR

AncSZ = experiment: as above
Fer (mouse) = experiment: as above
FGFR1 = FGFR1 (UniProt P11362); experiment: as above
c-Abl (mouse) = experiment: as above
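For SH2 binding enrichment of the phosphorylated peptide, bacterial display in this document: peptide library displayed on the E. coli surface as eCPX fusions, selected cells deep-sequenced, score is each peptide's frequency after selection divided by its frequency in the input.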
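For phosphorylation enrichment, bacterial display in this document: 11-residue human phosphosite peptides and single-mutation variants displayed on the E. coli surface, counted by deep sequencing, each peptide's frequency after selection divided by its frequency in the unselected input library; frequency after pTyr selection over input frequency; kinase dosed for 20-30% of maximal phosphorylation in three min.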

Row | Sequence | SH2 binding enrichment (c-Src SH2) | SH2 binding enrichment (SHP2-C SH2) | SH2 binding enrichment (Grb2 SH2) | phosphorylation enrichment (FGFR3) | phosphorylation enrichment (MERTK) | phosphorylation enrichment (Hck) | phosphorylation enrichment (EPHB1) | phosphorylation enrichment (Fyn) | phosphorylation enrichment (Jak2) | phosphorylation enrichment (c-Src) | phosphorylation enrichment (EPHB2) | phosphorylation enrichment (Fes) | phosphorylation enrichment (AncSZ) | phosphorylation enrichment (Fer (mouse)) | phosphorylation enrichment (FGFR1) | phosphorylation enrichment (c-Abl (mouse))
1 | MARDISRASFF [ALK_Y1278_Y1278S_YF] | 0.454 | 0.716 | 1.06 | 0.473 | 0.432 | 0.384 | 0.463 | 0.443 | 0.53 | 0.396 | 0.467 | 0.682 | 0.626 | 0.392 | 0.41 | 0.545
2 | KGSEGYLAATY [NF1_Y2503] | 0.473 | 0.614 | 0.719 | 0.494 | 0.355 | 0.46 | 0.372 | 0.46 | 0.627 | 0.484 | 0.365 | 0.723 | 0.654 | 0.457 | 0.377 | 0.471
3 | VHNLNYFKKTT [FGFR3_Y647_D646N_YF] | 0.377 | 0.678 | 0.987 | 0.369 | 0.311 | 0.347 | 0.36 | 0.302 | 0.467 | 0.425 | 0.314 | 0.607 | 0.402 | 0.346 | 0.355 | 0.442
4 | LARDMYDKEYY [MET_Y1230] | 1.37 | 0.614 | 0.881 | 0.973 | 0.449 | 0.765 | 0.815 | 0.624 | 1.41 | 0.673 | 0.627 | 1.43 | 1.83 | 0.71 | 0.921 | 0.652
5 | MHYSNYVSKGS [PDGFRA_Y849_D846Y] | 0.799 | 0.78 | 1.34 | 0.397 | 0.526 | 0.478 | 0.412 | 0.424 | 0.467 | 0.495 | 0.472 | 0.533 | 0.617 | 0.458 | 0.421 | 0.432
6 | HLMLQYDAVVN [SLC25A32_Y152_R147H] | 2.42 | 0.725 | 1.01 | 1.35 | 1.27 | 1.39 | 0.93 | 1.15 | 1.51 | 0.885 | 1.51 | 2.01 | 1.75 | 1.81 | 1.19 | 1.08
7 | RSSKMYPKTRS [LPL_Y329_L330P] | 0.486 | 0.556 | 0.916 | 0.624 | 0.562 | 0.509 | 0.359 | 0.502 | 1.43 | 0.614 | 0.151 | 0.675 | 0.601 | 0.342 | 0.547 | 1.2
8 | WFQTKYEELQV [KRT6B_Y360_I365V_YF] | 8.95 | 1.08 | 0.891 | 0.564 | 0.305 | 0.442 | 0.462 | 0.359 | 0.788 | 0.329 | 0.525 | 0.94 | 0.915 | 0.459 | 0.478 | 0.712
9 | KLQQWYREHRS [GPI_Y17] | 1.26 | 1.12 | 1.37 | 0.475 | 0.355 | 0.44 | 0.37 | 0.382 | 0.567 | 0.384 | 0.399 | 0.613 | 0.6 | 0.392 | 0.434 | 0.548
10 | KLIETCFSKNF [PLP1_Y50_Y50C_YF] | 0.482 | 0.561 | 0.849 | 0.725 | 0.405 | 0.492 | 0.581 | 0.413 | 1.06 | 0.476 | 0.523 | 1.23 | 1.14 | 0.504 | 0.47 | 0.826
11 | ISNATYKQIGL [FLT1_Y199_E201Q] | 0.481 | 0.78 | 0.863 | 0.399 | 0.419 | 0.349 | 0.421 | 0.434 | 0.513 | 0.399 | 0.342 | 0.582 | 0.667 | 0.362 | 0.378 | 0.566
12 | KGEDFYYVTCH [FHL1_Y149_C150Y] | 0.412 | 0.565 | 0.636 | 1.69 | 1.32 | 0.724 | 0.802 | 0.692 | 1.43 | 0.774 | 0.729 | 1.43 | 1.35 | 0.71 | 1.35 | 1.11
13 | CEAIEYLESKQ [BTK_Y511_M509I] | 0.64 | 0.738 | 0.774 | 0.835 | 0.461 | 0.552 | 0.631 | 0.485 | 1.33 | 0.549 | 0.553 | 1.39 | 1.29 | 0.521 | 0.574 | 0.816
14 | KREPQYSSHSS [SIPA1L3_Y1265_G1261R] | 0.549 | 0.885 | 0.973 | 0.376 | 0.452 | 0.362 | 0.423 | 0.338 | 0.43 | 0.506 | 0.306 | 0.629 | 0.559 | 0.401 | 0.377 | 0.486
15 | DSYWSYCNAVA [SLC20A2_Y436_S434W] | 0.817 | 0.649 | 1.02 | 2.42 | 0.952 | 3.31 | 2.64 | 5.46 | 1.27 | 4.44 | 1.93 | 1.12 | 1.43 | 0.644 | 4.16 | 1.45
16 | FGGLRYGFGGL [KRTAP20-2_Y13_V17G_YF] | 0.601 | 0.762 | 0.903 | 0.536 | 0.37 | 0.465 | 0.445 | 0.389 | 0.664 | 0.379 | 0.448 | 1.08 | 0.739 | 0.431 | 0.672 | 0.553
17 | IHHIDYFKETT [FGFR1_Y653_K656E_YF] | 0.447 | 0.767 | 0.832 | 0.567 | 0.427 | 0.446 | 0.456 | 0.555 | 0.692 | 0.489 | 0.415 | 0.778 | 0.605 | 0.451 | 0.443 | 0.445

Row | Sequence | SH2 binding enrichment (c-Src SH2) | SH2 binding enrichment (SHP2-C SH2) | SH2 binding enrichment (Grb2 SH2) | phosphorylation enrichment (FGFR3) | phosphorylation enrichment (MERTK) | phosphorylation enrichment (Hck) | phosphorylation enrichment (EPHB1) | phosphorylation enrichment (Fyn) | phosphorylation enrichment (Jak2) | phosphorylation enrichment (c-Src) | phosphorylation enrichment (EPHB2) | phosphorylation enrichment (Fes) | phosphorylation enrichment (AncSZ) | phosphorylation enrichment (Fer (mouse)) | phosphorylation enrichment (FGFR1) | phosphorylation enrichment (c-Abl (mouse))
18 | TVSTRYTQPQP [SARG_Y259] | 0.81 | 1.03 | 0.744 | 0.39 | 0.394 | 0.37 | 0.386 | 0.442 | 0.605 | 0.364 | 0.427 | 0.561 | 0.616 | 0.471 | 0.446 | 0.576
19 | QEKKGYFEDRR [GLUL_Y336] | 0.952 | 0.761 | 1.02 | 0.733 | 0.605 | 0.792 | 0.618 | 0.906 | 0.628 | 0.469 | 0.577 | 1 | 0.907 | 0.821 | 0.682 | 1.2
20 | FQNSLYAPDYS [FAM92A_Y226_R222Q] | 0.628 | 1.17 | 1.2 | 0.926 | 5.57 | 1.46 | 2.48 | 1.07 | 0.945 | 1.42 | 2.45 | 1.07 | 1.1 | 1.6 | 0.781 | 0.618
21 | EIIPFYGMSSF [FNDC3B_Y175_T179S_YF] | 4.4 | 0.592 | 0.652 | 0.786 | 1.54 | 1.15 | 0.764 | 1.06 | 0.772 | 0.822 | 0.916 | 0.995 | 1.06 | 1.46 | 0.497 | 0.865
22 | DLEKTYNTFRS [B4GALNT2_Y538_A533D_YF] | 0.506 | 0.629 | 0.846 | 0.55 | 0.291 | 0.734 | 0.445 | 0.967 | 0.736 | 1.75 | 0.319 | 0.851 | 0.656 | 0.391 | 0.431 | 0.523
23 | EEEPVYKAEPE [HCLS1_Y360_E361K] | 0.569 | 0.509 | 0.797 | 0.891 | 0.518 | 0.595 | 0.573 | 0.675 | 1.36 | 0.717 | 0.525 | 1.49 | 1.06 | 0.576 | 0.597 | 0.826
24 | TDLAFYLVRKG [ASL_Y376_YF] | 0.693 | 0.662 | 1.07 | 0.988 | 0.506 | 0.67 | 0.65 | 0.545 | 0.946 | 0.361 | 0.725 | 1.27 | 1.4 | 0.541 | 0.497 | 0.611
25 | NPQKSYFILLF [WAS_Y83_R86L_YF] | 0.573 | 0.944 | 1.27 | 0.906 | 0.398 | 0.43 | 0.546 | 0.449 | 1.05 | 0.337 | 0.551 | 0.969 | 0.836 | 0.414 | 1.01 | 0.606
26 | IRRQGYSHRIL [MYO3B_Y993] | 0.542 | 0.526 | 0.762 | 0.469 | 0.464 | 0.419 | 0.4 | 0.465 | 0.475 | 0.42 | 0.568 | 0.656 | 0.733 | 0.43 | 0.374 | 0.469
27 | KAIMTYVSSFF [ACTN4_Y260_YF] | 0.677 | 0.878 | 0.962 | 0.647 | 0.494 | 0.531 | 0.57 | 0.559 | 0.561 | 0.592 | 0.602 | 0.821 | 0.911 | 0.437 | 0.533 | 0.527
28 | SLAARYFNWVS [FLT4_Y1230_YF] | 1.15 | 1.39 | 2.68 | 0.718 | 0.636 | 0.532 | 0.586 | 0.494 | 0.935 | 0.431 | 0.698 | 1.26 | 1.15 | 0.479 | 0.555 | 0.822
29 | EYFDGYWGYSV [ITGA2B_Y265] | 1.94 | 0.578 | 0.999 | 13.7 | 2.87 | 5.55 | 3.88 | 6.24 | 12.3 | 7.52 | 9.3 | 1.42 | 3.58 | 1.4 | 14.6 | 4.7
30 | LTKQEYDEAGP [ACTA1_Y364_I359L] | 8.7 | 0.874 | 1.08 | 1.07 | 0.817 | 1.15 | 0.696 | 0.809 | 1.62 | 0.996 | 1.23 | 1.71 | 2.03 | 0.638 | 0.811 | 1.39
31 | LSPNMYNSKFW [TARSL2_Y457_L461F] | 0.506 | 0.486 | 0.909 | 0.924 | 1.11 | 1.25 | 1.41 | 0.911 | 1.58 | 1.35 | 1.1 | 1.6 | 1.24 | 0.808 | 1.24 | 1.1
32 | TIQSMYGCDVG [HLA-B_Y123_L119I] | 0.581 | 1.01 | 0.909 | 0.602 | 0.559 | 0.502 | 0.502 | 0.427 | 0.794 | 0.517 | 0.48 | 1.04 | 0.886 | 0.48 | 0.579 | 0.68
33 | IHFPPYTDWNQ [ALDH3B2_Y365_YF] | 0.821 | 0.736 | 0.979 | 0.685 | 0.431 | 0.519 | 0.695 | 0.526 | 0.894 | 0.52 | 0.524 | 1.03 | 1.01 | 1.04 | 0.659 | 0.687
